According to the supplement of paper PMC9112550, “Optimization of the antimicrobial peptide Bac7 by deep mutational scanning” (BMC Biology, 2022):

What follows are sequences tested on Escherichia coli TOP10 (assay: shrunken log2 fold change of peptide-encoding DNA abundance (4.5 h post-induction vs induction); higher = less antimicrobial activity (less host growth inhibition)). Conditions: time post-induction: 4.5 h; library: site-saturation at positions 5, 18, 19, 20.
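Also: peptides expressed intracellularly from a pBAD plasmid library in pooled LB shake-flask culture, induced with 0.3% L-arabinose, DNA abundance read by NGS, three biological replicates, DESeq2 with apeglm shrinkage.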

| Sequence | shrunken log2 fold change |
| --- | --- |
| RRIRSRPPRLPRPRPRPPGLPRP | 0.348 |
| RRIRCRPPRLPRPRPRPHTWPRP | -0.216 |
| RRIRKRPPRLPRPRPRPYNTPRP | -0.339 |
| RRIRFRPPRLPRPRPRPASLPRP | -0.227 |
| RRIRQRPPRLPRPRPRPGAMPRP | 0.155 |
| RRIRMRPPRLPRPRPRPQTPPRP | 2.18 |
| RRIRIRPPRLPRPRPRPVWGPRP | 0.0298 |
| RRIRHRPPRLPRPRPRPIYCPRP | -0.0143 |
| RRIRCRPPRLPRPRPRPKYWPRP | 0.22 |
| RRIRKRPPRLPRPRPRPQLTPRP | 0.14 |
| RRIRQRPPRLPRPRPRPCMSPRP | -0.234 |
| RRIRPRPPRLPRPRPRPYGPPRP | -0.37 |
| RRIRWRPPRLPRPRPRPTFTPRP | 0.195 |
| RRIRIRPPRLPRPRPRPKHKPRP | -0.508 |
| RRIRERPPRLPRPRPRPVNEPRP | -0.224 |
| RRIRKRPPRLPRPRPRPPAWPRP | 0.602 |
| RRIRSRPPRLPRPRPRPWPKPRP | 0.228 |
| RRIRYRPPRLPRPRPRPHTMPRP | -0.604 |
| RRIRLRPPRLPRPRPRPTFMPRP | -0.305 |
| RRIRARPPRLPRPRPRPAWAPRP | 0.48 |
| RRIRVRPPRLPRPRPRPYHQPRP | 0.00427 |
| RRIRQRPPRLPRPRPRPMQKPRP | 0.0524 |
| RRIRCRPPRLPRPRPRPMALPRP | -0.0797 |
| RRIRWRPPRLPRPRPRPTDPPRP | 0.374 |
| RRIRQRPPRLPRPRPRPYWNPRP | -1.21 |

| Sequence | shrunken log2 fold change |
| --- | --- |
| RRIRFRPPRLPRPRPRPISRPRP | 0.0107 |
| RRIRSRPPRLPRPRPRPINMPRP | -0.928 |
| RRIRCRPPRLPRPRPRPSFRPRP | -0.439 |
| RRIRPRPPRLPRPRPRPGTHPRP | -0.017 |
| RRIRWRPPRLPRPRPRPHIIPRP | -0.441 |
| RRIRPRPPRLPRPRPRPYMLPRP | -0.781 |
| RRIRLRPPRLPRPRPRPGKEPRP | 0.0418 |
| RRIRHRPPRLPRPRPRPCAFPRP | -0.176 |
| RRIRKRPPRLPRPRPRPSFFPRP | -0.0585 |
| RRIRLRPPRLPRPRPRPMVPPRP | 0.096 |
| RRIRQRPPRLPRPRPRPSCFPRP | -0.529 |
| RRIRRRPPRLPRPRPRPANKPRP | 0.0263 |
| RRIRDRPPRLPRPRPRPDTMPRP | 0.373 |
| RRIRNRPPRLPRPRPRPWQRPRP | -0.0153 |
| RRIRWRPPRLPRPRPRPGINPRP | 0.0653 |
| RRIRIRPPRLPRPRPRPFVVPRP | -0.235 |
| RRIRRRPPRLPRPRPRPQLPPRP | 0.283 |
| RRIRIRPPRLPRPRPRPTDYPRP | -0.223 |
| RRIRHRPPRLPRPRPRPMVHPRP | 0.00748 |
| RRIRYRPPRLPRPRPRPCADPRP | -0.21 |
| RRIRDRPPRLPRPRPRPCGSPRP | 0.0136 |
| RRIRWRPPRLPRPRPRPQTMPRP | -0.00112 |
| RRIRQRPPRLPRPRPRPPERPRP | 0.0424 |
| RRIRHRPPRLPRPRPRPGMIPRP | -0.187 |
| RRIRFRPPRLPRPRPRPEWQPRP | -0.00149 |

| Sequence | shrunken log2 fold change |
| --- | --- |
| RRIRTRPPRLPRPRPRPGGSPRP | 0.135 |
| RRIRSRPPRLPRPRPRPVNEPRP | -0.0746 |
| RRIRYRPPRLPRPRPRPECVPRP | -0.282 |
| RRIRGRPPRLPRPRPRPDEKPRP | 0.233 |
| RRIRFRPPRLPRPRPRPESNPRP | 0.224 |
| RRIRERPPRLPRPRPRPEQHPRP | -0.0123 |
| RRIRQRPPRLPRPRPRPRFGPRP | 0.198 |
| RRIRMRPPRLPRPRPRPPVVPRP | 0.753 |
| RRIRSRPPRLPRPRPRPFWVPRP | 0.106 |
| RRIRGRPPRLPRPRPRPIFKPRP | 0.359 |
| RRIRTRPPRLPRPRPRPYKTPRP | -0.315 |
| RRIRVRPPRLPRPRPRPFYAPRP | -0.357 |
| RRIRERPPRLPRPRPRPWQPPRP | 0.0778 |
| RRIRGRPPRLPRPRPRPTVCPRP | 0.798 |
| RRIRLRPPRLPRPRPRPIIWPRP | -0.000825 |
| RRIRLRPPRLPRPRPRPCSYPRP | -0.259 |
| RRIRPRPPRLPRPRPRPMTSPRP | 0.0205 |
| RRIRSRPPRLPRPRPRPSARPRP | 0.299 |
| RRIRTRPPRLPRPRPRPVAHPRP | -0.0854 |
| RRIRLRPPRLPRPRPRPQLCPRP | 0.118 |
| RRIRERPPRLPRPRPRPGDMPRP | -0.116 |
| RRIRARPPRLPRPRPRPSHPPRP | -0.0758 |
| RRIRKRPPRLPRPRPRPKIPPRP | 0.174 |
| RRIRFRPPRLPRPRPRPETHPRP | -0.0779 |
| RRIRNRPPRLPRPRPRPIFWPRP | -0.162 |

| Sequence | shrunken log2 fold change |
| --- | --- |
| RRIRHRPPRLPRPRPRPLCAPRP | -0.0531 |
| RRIRPRPPRLPRPRPRPHAWPRP | 0.189 |
| RRIRKRPPRLPRPRPRPYLAPRP | -0.295 |
| RRIRPRPPRLPRPRPRPTPFPRP | 0.269 |
| RRIRTRPPRLPRPRPRPKKFPRP | -0.403 |
| RRIRMRPPRLPRPRPRPTDAPRP | 0.741 |
| RRIRVRPPRLPRPRPRPNMDPRP | -0.506 |
| RRIRSRPPRLPRPRPRPGEMPRP | 0.336 |
| RRIRARPPRLPRPRPRPEAIPRP | 0.839 |
| RRIRLRPPRLPRPRPRPMHTPRP | 0.25 |
| RRIRDRPPRLPRPRPRPTQKPRP | 0.268 |
| RRIRKRPPRLPRPRPRPGNLPRP | 0.0368 |
| RRIRQRPPRLPRPRPRPVAKPRP | 0.2 |
| RRIRHRPPRLPRPRPRPYWTPRP | 0.0019 |
| RRIRARPPRLPRPRPRPWKAPRP | -0.0198 |
| RRIRARPPRLPRPRPRPFKPPRP | -0.0739 |
| RRIRSRPPRLPRPRPRPTFAPRP | 0.232 |
| RRIRKRPPRLPRPRPRPMGDPRP | 0.153 |
| RRIRSRPPRLPRPRPRPTMAPRP | 0.173 |
| RRIRFRPPRLPRPRPRPFQHPRP | -0.209 |
| RRIRPRPPRLPRPRPRPHVVPRP | -0.136 |
| RRIRFRPPRLPRPRPRPPTYPRP | -0.0496 |
| RRIRPRPPRLPRPRPRPAKTPRP | -0.168 |
| RRIRVRPPRLPRPRPRPNDPPRP | -0.0659 |
| RRIRGRPPRLPRPRPRPFEFPRP | -0.157 |

| Sequence | shrunken log2 fold change |
| --- | --- |
| RRIRMRPPRLPRPRPRPHIEPRP | -0.0375 |
| RRIRTRPPRLPRPRPRPTCPPRP | -0.0738 |
| RRIRGRPPRLPRPRPRPWFYPRP | -0.4 |
| RRIRGRPPRLPRPRPRPNMQPRP | 0.492 |
| RRIRHRPPRLPRPRPRPPFDPRP | -0.178 |
| RRIRKRPPRLPRPRPRPHGLPRP | 0.0425 |
| RRIRDRPPRLPRPRPRPYQAPRP | -0.0283 |
| RRIRRRPPRLPRPRPRPCQIPRP | -0.211 |
| RRIRHRPPRLPRPRPRPCFTPRP | -0.838 |
| RRIRGRPPRLPRPRPRPWMQPRP | -0.539 |
| RRIRIRPPRLPRPRPRPHSKPRP | -0.677 |
| RRIRRRPPRLPRPRPRPKCEPRP | 0.0268 |
| RRIRFRPPRLPRPRPRPGYAPRP | -0.0137 |
| RRIRMRPPRLPRPRPRPCTCPRP | 0.0043 |
| RRIRRRPPRLPRPRPRPVACPRP | 0.41 |
| RRIRQRPPRLPRPRPRPDLAPRP | -0.0142 |
| RRIRNRPPRLPRPRPRPQVIPRP | -0.000921 |
| RRIRCRPPRLPRPRPRPNGPPRP | -0.00954 |
| RRIRGRPPRLPRPRPRPRSFPRP | -0.0397 |
| RRIRCRPPRLPRPRPRPIMIPRP | -0.566 |
| RRIRMRPPRLPRPRPRPVPRPRP | 0.606 |
| RRIRTRPPRLPRPRPRPMAMPRP | 0.0345 |
| RRIRQRPPRLPRPRPRPHWDPRP | -0.224 |
| RRIRYRPPRLPRPRPRPSPHPRP | -0.49 |
| RRIRCRPPRLPRPRPRPCDHPRP | 0.0959 |

| Sequence | shrunken log2 fold change |
| --- | --- |
| RRIRARPPRLPRPRPRPYFVPRP | -0.122 |
| RRIRHRPPRLPRPRPRPTYNPRP | -0.758 |
| RRIRCRPPRLPRPRPRPNRCPRP | 0.053 |
| RRIRGRPPRLPRPRPRPCTYPRP | 0.00971 |
| RRIRERPPRLPRPRPRPWHWPRP | -0.0299 |
| RRIRVRPPRLPRPRPRPIKIPRP | -0.251 |
| RRIRSRPPRLPRPRPRPKCKPRP | -0.0132 |
| RRIRMRPPRLPRPRPRPPMNPRP | 0.315 |
| RRIRLRPPRLPRPRPRPKQMPRP | 0.0542 |
| RRIRMRPPRLPRPRPRPHFGPRP | 0.0712 |
| RRIRSRPPRLPRPRPRPWDRPRP | -0.0645 |
| RRIRMRPPRLPRPRPRPMFPPRP | 0.164 |
| RRIRCRPPRLPRPRPRPRVAPRP | 0.293 |
| RRIRHRPPRLPRPRPRPVFNPRP | -0.532 |
| RRIRNRPPRLPRPRPRPRIRPRP | -0.0657 |
| RRIRYRPPRLPRPRPRPIMLPRP | -3.12 |
| RRIRFRPPRLPRPRPRPLPPPRP | 0.828 |
| RRIRRRPPRLPRPRPRPKGGPRP | 0.183 |
| RRIRSRPPRLPRPRPRPNNKPRP | -0.559 |
| RRIRDRPPRLPRPRPRPTKIPRP | 0.0599 |
| RRIRFRPPRLPRPRPRPTASPRP | 0.384 |
| RRIRVRPPRLPRPRPRPRHDPRP | 0.129 |
| RRIRMRPPRLPRPRPRPACLPRP | 0.236 |
| RRIRCRPPRLPRPRPRPVPHPRP | 0.0468 |
| RRIRRRPPRLPRPRPRPDMIPRP | -0.0332 |
